Source: article PMC7641504 (International journal of mass spectrometry, 2020)

Target: the molecule itself
Experiment: native MS

Protein	stoichiometry N
yeast alcohol dehydrogenase (enzyme, UniProt P00330 1-348, looked up) MSIPETQKGVIFYESHGKLEYKDIPVPKPKANELLINVKYSGVCHTDLHAWHGDWPLPVKLPLVGGHEGAGVVVGMGENVKGWKIGDYAGIKWLNGSCMACEYCELGNESNCPHADLSGYTHDGSFQQYATADAVQAAHIPQGTDLAQVAPILCAGITVYKALKSANLMAGHWVAISGAAGGLGSLAVQYAKAMGYRVLGIDGGEGKEELFRSIGGEVFIDFTKEKDIVGAVLKATDGGAHGVINVSVSEAAIEASTRYVRANGTTVLVGMPAGAKCCSDVFNQVVKSISIVGSYVGNRADTREALDFFARGLVKSPIKVVGLSTLPEIYEKMEKGQIVGRYVVDTSK	4
rabbit muscle pyruvate kinase (enzyme, acetylation of the N-terminal serine (after removal of the initiator methionine)) not shown	4
